Test results from patent publication US20110182814A1 (GENERAL HOSPITAL, published 2011).
Ends that are not written are not given here.

Assays:
[1] = molecular target: human plectin-1 (of human PDAC cell lines) (human, UniProt Q15149 1-4684); assay: flow cytometry, FITC-labelled phage on PDAC cell lines, average over lines, reference is the FITC-labelled unrelated phage clone
Protocol: (§1) Mouse Pancreatic ductal adenocarcinoma (PDAC) cells, human PDAC cells (i.e. MNA, 8988, SW1990, PaCa-2, ASPC), normal human ductal cells and normal pancreatic cells were incubated with 1 mM (FITC) FITC-labeled phage clone 27 or unrelated phage clone (amino acid sequence SNLHPSD, negative control (SEQ ID NO:XX)) for 1 hour at 37° C., washed 3× with DPBS and visualized by fluorescent microscopy (Nikon Eclipse TE2000-S, Insight QE, 40× objective). The cells were then harvested by incubation with trypsin, centrifuged, and analyzed (10,000 cells/sample) by flow cytometry on a Beckton Dickinson FACSCalibur (San Jose, Calif.). […] Mean fluorescence was plotted against cell number to show relative uptake between cell types.
The specificity of Clone 27 for human PDAC cells was evaluated as described in this example. Clone 27 and an unrelated phage clone were labeled with FITC, producing FITC-27 and a FITC-unrelated phage clone (negative control). Mouse PDAC cells as a positive control along with five human PDAC cell lines and with normal human ductal cells were incubated with each type of clone and then uptake of the clone was analyzed via fluorescence-activated cell sorter (FACS).

[2] = molecular target: T1, plectin-1 (mouse, of mouse PDAC cells) (mouse, UniProt Q9QXS1 1-4691); assay: flow cytometry, fluorescein-labelled phage on mouse PDAC cells against normal ductal cells
T1 construct: whole, on cells; On intact cells in the pulldown (photo-crosslink) and in flow cytometry; From cell lysate on a blot in the far western and the western; also called 500 kDa band
Protocol: as §1
Validation of Clone 27 as a PDAC marker (FIG. 1B) was done in experiments described herein, in addition to testing clones 1 (SGVEFLH, SEQ ID NO:4), 9 (SKKDTHH, SEQ ID NO:5), 15 (TMAPSIK, SEQ ID NO:6), 17 (TQHQVTA, SEQ ID NO:7), and 22 (VNDRNVK, SEQ ID NO:8). The phage coat proteins were fluorescein labeled then the extent of phage clone binding and specificity quantified for mouse PDAC and normal ductal cells via flow cytometry (FIG. 1B). […] Phage clone 15 was second in affinity with the remainder having nearly identical specificity.

T1 sequence (Q9QXS1 whole entry): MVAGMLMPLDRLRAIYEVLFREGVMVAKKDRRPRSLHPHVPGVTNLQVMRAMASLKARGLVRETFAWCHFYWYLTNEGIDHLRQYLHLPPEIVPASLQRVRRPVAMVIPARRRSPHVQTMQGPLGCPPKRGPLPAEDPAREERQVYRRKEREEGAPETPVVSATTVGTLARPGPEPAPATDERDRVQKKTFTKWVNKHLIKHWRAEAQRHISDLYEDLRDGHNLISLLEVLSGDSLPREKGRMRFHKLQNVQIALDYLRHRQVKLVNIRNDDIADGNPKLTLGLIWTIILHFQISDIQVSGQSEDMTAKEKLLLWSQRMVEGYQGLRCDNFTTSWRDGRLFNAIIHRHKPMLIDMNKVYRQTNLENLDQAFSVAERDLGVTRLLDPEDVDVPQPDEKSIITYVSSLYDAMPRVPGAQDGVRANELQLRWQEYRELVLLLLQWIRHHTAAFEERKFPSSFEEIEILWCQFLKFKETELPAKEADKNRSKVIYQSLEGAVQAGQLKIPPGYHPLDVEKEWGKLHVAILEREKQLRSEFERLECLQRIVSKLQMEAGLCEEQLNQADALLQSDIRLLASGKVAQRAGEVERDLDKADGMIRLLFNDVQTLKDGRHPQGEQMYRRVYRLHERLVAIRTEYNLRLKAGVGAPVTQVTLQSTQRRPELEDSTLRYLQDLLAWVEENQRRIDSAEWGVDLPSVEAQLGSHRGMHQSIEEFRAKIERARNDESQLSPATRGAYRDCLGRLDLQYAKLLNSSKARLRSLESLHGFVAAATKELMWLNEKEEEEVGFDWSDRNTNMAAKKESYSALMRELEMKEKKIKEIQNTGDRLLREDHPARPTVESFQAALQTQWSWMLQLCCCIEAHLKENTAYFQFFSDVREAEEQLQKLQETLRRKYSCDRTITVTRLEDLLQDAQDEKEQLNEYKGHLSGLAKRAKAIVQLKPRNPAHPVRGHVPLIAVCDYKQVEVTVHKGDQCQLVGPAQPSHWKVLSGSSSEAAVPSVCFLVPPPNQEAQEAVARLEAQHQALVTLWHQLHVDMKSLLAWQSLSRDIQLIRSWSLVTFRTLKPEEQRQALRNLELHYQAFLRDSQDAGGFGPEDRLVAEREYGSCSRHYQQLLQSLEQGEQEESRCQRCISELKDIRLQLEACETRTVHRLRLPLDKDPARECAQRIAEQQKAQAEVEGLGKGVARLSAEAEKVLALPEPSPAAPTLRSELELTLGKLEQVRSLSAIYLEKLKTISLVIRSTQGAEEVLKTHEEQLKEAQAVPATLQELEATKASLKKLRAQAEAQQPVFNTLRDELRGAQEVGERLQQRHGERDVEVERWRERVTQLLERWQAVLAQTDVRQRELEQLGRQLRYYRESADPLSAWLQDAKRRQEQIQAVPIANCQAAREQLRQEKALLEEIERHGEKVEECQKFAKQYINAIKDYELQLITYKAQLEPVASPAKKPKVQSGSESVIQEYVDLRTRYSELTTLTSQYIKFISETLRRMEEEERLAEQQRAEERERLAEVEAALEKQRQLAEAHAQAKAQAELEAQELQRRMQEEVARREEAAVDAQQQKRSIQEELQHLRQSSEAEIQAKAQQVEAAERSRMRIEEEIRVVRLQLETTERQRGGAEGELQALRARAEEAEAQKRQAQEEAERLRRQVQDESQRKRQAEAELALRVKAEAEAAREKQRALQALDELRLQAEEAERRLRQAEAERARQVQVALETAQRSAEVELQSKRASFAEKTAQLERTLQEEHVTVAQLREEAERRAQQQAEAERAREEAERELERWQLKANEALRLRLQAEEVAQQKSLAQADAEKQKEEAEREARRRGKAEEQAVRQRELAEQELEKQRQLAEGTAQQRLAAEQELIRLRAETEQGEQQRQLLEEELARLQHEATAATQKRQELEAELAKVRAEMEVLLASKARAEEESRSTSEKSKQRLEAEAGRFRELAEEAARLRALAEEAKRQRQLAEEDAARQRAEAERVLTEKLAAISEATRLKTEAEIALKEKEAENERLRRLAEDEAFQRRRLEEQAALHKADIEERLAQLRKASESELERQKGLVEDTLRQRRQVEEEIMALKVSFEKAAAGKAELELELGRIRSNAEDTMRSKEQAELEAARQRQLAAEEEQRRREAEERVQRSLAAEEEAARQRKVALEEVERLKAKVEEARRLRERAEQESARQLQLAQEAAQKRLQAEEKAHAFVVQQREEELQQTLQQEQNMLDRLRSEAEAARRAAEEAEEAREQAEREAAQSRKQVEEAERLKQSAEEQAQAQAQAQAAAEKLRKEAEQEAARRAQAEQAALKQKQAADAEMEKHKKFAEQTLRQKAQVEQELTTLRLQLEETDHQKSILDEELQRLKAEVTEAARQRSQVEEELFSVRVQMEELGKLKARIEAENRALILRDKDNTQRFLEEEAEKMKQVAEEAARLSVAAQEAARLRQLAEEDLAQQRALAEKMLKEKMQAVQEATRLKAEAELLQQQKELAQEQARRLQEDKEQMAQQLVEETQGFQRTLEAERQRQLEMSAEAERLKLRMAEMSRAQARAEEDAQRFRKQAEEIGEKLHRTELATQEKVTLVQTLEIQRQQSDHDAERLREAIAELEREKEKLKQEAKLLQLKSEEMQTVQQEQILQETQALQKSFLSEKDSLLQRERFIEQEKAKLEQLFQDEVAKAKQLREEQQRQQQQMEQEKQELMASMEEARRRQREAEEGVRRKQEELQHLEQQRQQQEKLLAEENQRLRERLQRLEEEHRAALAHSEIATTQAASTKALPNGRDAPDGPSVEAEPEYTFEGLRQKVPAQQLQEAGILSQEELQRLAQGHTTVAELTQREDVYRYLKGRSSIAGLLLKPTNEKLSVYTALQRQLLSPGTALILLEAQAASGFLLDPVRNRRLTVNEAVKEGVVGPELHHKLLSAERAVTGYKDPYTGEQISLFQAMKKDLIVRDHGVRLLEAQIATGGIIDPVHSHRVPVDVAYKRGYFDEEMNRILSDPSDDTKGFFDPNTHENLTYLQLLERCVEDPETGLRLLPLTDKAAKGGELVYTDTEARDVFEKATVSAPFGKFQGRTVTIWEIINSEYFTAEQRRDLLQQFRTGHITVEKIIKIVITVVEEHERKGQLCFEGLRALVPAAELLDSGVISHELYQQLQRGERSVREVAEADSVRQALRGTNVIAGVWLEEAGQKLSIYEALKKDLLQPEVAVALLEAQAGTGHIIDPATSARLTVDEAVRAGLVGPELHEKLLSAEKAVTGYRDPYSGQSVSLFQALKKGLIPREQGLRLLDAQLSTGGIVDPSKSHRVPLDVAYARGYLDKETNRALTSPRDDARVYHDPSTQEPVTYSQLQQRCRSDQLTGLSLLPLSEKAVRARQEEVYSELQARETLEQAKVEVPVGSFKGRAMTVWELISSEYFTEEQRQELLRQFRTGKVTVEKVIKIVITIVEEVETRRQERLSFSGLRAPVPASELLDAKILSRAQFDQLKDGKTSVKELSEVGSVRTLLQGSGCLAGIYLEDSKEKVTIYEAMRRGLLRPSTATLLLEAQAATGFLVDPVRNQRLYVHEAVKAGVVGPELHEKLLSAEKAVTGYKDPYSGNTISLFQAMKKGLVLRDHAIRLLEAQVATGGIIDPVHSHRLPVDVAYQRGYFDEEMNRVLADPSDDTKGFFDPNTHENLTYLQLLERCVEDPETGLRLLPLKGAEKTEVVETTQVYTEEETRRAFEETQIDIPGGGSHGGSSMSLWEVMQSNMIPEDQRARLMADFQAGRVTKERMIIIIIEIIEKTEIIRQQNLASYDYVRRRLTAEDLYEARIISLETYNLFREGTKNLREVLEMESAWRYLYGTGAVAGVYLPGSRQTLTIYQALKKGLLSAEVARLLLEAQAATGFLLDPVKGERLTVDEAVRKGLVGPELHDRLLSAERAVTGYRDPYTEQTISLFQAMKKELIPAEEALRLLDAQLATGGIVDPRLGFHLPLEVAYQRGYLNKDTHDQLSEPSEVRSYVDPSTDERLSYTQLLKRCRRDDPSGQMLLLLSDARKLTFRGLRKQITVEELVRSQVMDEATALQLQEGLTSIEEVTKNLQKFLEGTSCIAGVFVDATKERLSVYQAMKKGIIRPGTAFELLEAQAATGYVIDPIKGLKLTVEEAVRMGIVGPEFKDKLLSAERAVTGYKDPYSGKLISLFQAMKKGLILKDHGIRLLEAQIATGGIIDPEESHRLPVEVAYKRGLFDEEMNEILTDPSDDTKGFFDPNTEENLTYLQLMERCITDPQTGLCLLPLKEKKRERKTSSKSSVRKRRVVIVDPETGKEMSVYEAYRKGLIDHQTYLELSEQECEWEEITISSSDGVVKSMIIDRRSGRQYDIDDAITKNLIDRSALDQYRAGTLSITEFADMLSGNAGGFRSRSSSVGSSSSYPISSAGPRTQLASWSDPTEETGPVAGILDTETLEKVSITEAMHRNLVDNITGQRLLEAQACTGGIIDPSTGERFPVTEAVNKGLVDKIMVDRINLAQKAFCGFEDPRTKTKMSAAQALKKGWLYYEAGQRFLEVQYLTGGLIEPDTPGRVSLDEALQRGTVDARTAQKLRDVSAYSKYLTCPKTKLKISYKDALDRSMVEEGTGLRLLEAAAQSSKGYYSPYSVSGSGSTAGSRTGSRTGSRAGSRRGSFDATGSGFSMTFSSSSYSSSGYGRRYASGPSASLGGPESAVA

B1: phage clone 27 displaying the peptide KTLLPTP (SEQ ID NO:1) (peptide)
peptide: KTLLPTP
modifications: also: displayed on M13 phage coat protein, phage labelled with FITC or biotin
notes: Tested as whole labelled phage, not as free peptide; also called FITC-27; PDAC-27; not shown: M13 phage coat protein carrying the 7-mer of the phD7 library (New England Biolabs)
specificity (ratio of clone 27/unrelated clone mean fluorescence) [1]: 141 ratio | specificity over normal ductal cells [2]: 112 fold
